Results as given in paper doi:10.1101/2025.11.06.686519 (bioRxiv, 2025).

B1: Fab Cb (Fab 73.1) (Fab, V domains shown)
VH: QVQLQQSGAELVRPGTSVKISCKASGYTFSNYWLGWLKQRPGHGLEWIGDIYPGGGYTNYNEKLKGKATLTADTSSSTAYMQLSSLTSEDSAVYFCARPRYGDYWYFDVWGAGTTVTVSS
VL: VHSALMAASPGEKVTITCSVSSSISSSNLHWYQQKSETSPKPWIYGTSNLASGVPVRFSGSGSGTSYSLTISSMEAEDAATYYCQQWSSYPLTFGAGTKLELK
B2: mAb 73.1 (clone Cb), recombinant monoclonal antibody (antibody, V domains shown)
VH: B1 VH
VL: B1 VL
notes: copies: 2 + 2

What was measured:
[1] = target: PR8 HA as used for cryo-EM with Fabs (Influenza A virus A/Puerto Rico/8/1934 …, UniProt P03452); experiment: cryo-EM structure; conditions: both partners purified
Chain of PR8 HA as used for cryo-EM with Fabs (P03452 18-338): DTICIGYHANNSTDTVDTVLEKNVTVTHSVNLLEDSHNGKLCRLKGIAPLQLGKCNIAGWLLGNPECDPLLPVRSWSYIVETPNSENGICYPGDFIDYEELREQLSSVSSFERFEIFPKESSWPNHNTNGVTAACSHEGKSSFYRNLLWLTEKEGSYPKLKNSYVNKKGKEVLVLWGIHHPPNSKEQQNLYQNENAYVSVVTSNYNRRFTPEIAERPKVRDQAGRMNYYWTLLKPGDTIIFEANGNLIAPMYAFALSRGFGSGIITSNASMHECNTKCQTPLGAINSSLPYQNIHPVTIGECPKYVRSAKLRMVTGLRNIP

[2] = target: single site-biotinylated PR8 HA (as loaded on streptavidin biosensors for BLI) (influenza virus strain A/Puerto Rico/8/1934 (PR8)) (UniProt P03452); experiment: BLI; Octet RED96; […]; association 300 s, dissociation 600 s; global fit 1:1
Chain of single site-biotinylated PR8 HA (as loaded on streptavidin biosensors for BLI) (influenza virus strain A/Puerto Rico/8/1934 (PR8)) (P03452 18-338): as above

[3] = target: recombinant hemagglutinin (HA) from influenza virus strain A/Puerto Rico/8/1934 (PR8), cysteine-crosslinked, … (Influenza A virus A/Puerto Rico/8/1934 …, UniProt P03452); experiment: ELISA; conditions: both partners purified
Chain of recombinant hemagglutinin (HA) from influenza virus strain A/Puerto Rico/8/1934 (PR8), cysteine-crosslinked, … (P03452 18-338): as above

Binder | binding result [1] | Kd [2] [nM] | binding result [3]
B1 | binds | 30 | 
B2 |  |  | binds
